Residue numbers refer to the chain shown, from its start. Numbers in names are those of the source.
B1: caninized anti-IL31 antibody 34D03 (mAb1), canine IgGB (65), wild-type (antibody)
heavy: EVQLVESGGDLVKPGGSLRLSCVASGFTFSNYGMSWVRQAPGKGLQWVATISYGGSYTYYPDNIKGRFTISRDNAKNTLYLQMNSLRAEDTAMYYCVRGYGYDTMDYWGQGTLVTVSSASTTAPSVFPLAPSCGSTSGSTVALACLVSGYFPEPVTVSWNSGSLTSGVHTFPSVLQSSGLYSLSSMVTVPSSRWPSETFTCNVAHPASKTKVDKPVPKRENGRVPRPPDCPKCPAPEMLGGPSVFIFPPKPKDTLLIARTPEVTCVVVDLDPEDPEVQISWFVDGKQMQTAKTQPREEQFNGTYRVVSVLPIGHQDWLKGKQFTCKVNNKALPSPIERTISKARGQAHQPSVYVLPPSREELSKNTVSLTCLIKDFFPPDIDVEWQSNGQQEPESKYRTTPPQLDEDGSYFLYSKLSVDKSRWQRGDTFICAVMHEALHNHYTQESLSHSPGK
VL: EIVMTQSPASLSLSQEEKVTITCKASQSVSFAGTGLMHWYQQKPGQAPKLLIYRASNLEAGVPSRFSGSGSGTDFSFTISSLEPEDVAVYYCQQSREYPWTFGQGTKLEIK
B2: caninized anti-IL31 antibody 34D03 (mAb1), canine IgGB (65), N434H (antibody)
heavy: B1 heavy with N440H
VL: B1 VL
B3: caninized anti-IL31 antibody 34D03 (mAb1), canine IgGB, N434L (antibody)
chain 1: B1 heavy with N440L
chain 2: B1 VL
B4: caninized anti-IL31 antibody 34D03 (mAb1), canine IgGB, N434A (antibody)
chain 1: B1 heavy with N440A
chain 2: B1 VL
B5: caninized anti-IL31 antibody 34D03 (mAb1), canine IgGB, N434F (antibody)
chain 1: B1 heavy with N440F
chain 2: B1 VL
B6: caninized anti-IL31 antibody 34D03 (mAb1), canine IgGB, N434I (antibody)
chain 1: B1 heavy with N440I
chain 2: B1 VL
B7: caninized anti-IL31 antibody 34D03 (mAb1), canine IgGB, N434K (antibody)
chain 1: B1 heavy with N440K
chain 2: B1 VL
B8: caninized anti-IL31 antibody 34D03 (mAb1), canine IgGB, N434G (antibody)
chain 1: B1 heavy with N440G
chain 2: B1 VL
B9: caninized anti-NGF antibody ZTS-841 (mAb2 of Table 4), canine IgGC, WT (antibody, from a related filing, part only)
heavy: EVQLVESGGDLVKPGGSLRLSCVASGFTFSSHGMHWVRQSPGKGLQWVAVINSGGSSTYYTDAVKGRFTISRDNAKNTVYLQMNSLRAEDTAMYYCAKESVGGWEQLVGPHFDYWGQGTLVIVSSASTTAPSVFPLAPSCGSQSGSTVALACLVSGYIPEPVTVSWNSVSLTSGVHTFPSVLQSSGLYSLSSMVTVPSSRWPSETFTCNVAHPATNTKVDKPVAKECECKCNCNNCPCPGCGLLGGPSVFIFPPKPKDILVTARTPTVTCVVVDLDPENPEVQISWFVDSKQVQTANTQPREEQSNGTYRVVSVLPIGHQDWLSGKQFKCKVNNKALPSPIEEIISKTPGQAHQPNVYVLPPSRDEMSKNTVTLTCLVKDFFPPEIDVEWQSNGQQEPESKYRMTPPQLDEDGSYFLYSKLSVDKSRWQRGDTFICAVMHEALHNHYTQISLSHSPGK
VL: QSVLTQPTSVSGSLGQRVTISCSGSTNNIGILGASWYQLFPGKAPKLLVYGNGNRPSGVPDRFSGADSGDSVTLTITGLQAEDEADYYCQSFDTTLGAHVFGGGTHLTVL
B10: caninized anti-NGF antibody ZTS-841 (mAb2 of Table 4), canine IgGD, WT (antibody, from a related filing, part only)
heavy: EVQLVESGGDLVKPGGSLRLSCVASGFTFSSHGMHWVRQSPGKGLQWVAVINSGGSSTYYTDAVKGRFTISRDNAKNTVYLQMNSLRAEDTAMYYCAKESVGGWEQLVGPHFDYWGQGTLVIVSSASTTAPSVFPLAPSCGSTSGSTVALACLVSGYFPEPVTVSWNSGSLTSGVHTFPSVLQSSGLYSLSSTVTVPSSRWPSETFTCNVVHPASNTKVDKPVPKESTCKCISPCPVPESLGGPSVFIFPPKPKDILRITRTPEITCVVLDLGREDPEVQISWFVDGKEVHTAKTQPREQQFNSTYRVVSVLPIEHQDWLTGKEFKCRVNHIGLPSPIERTISKARGQAHQPSVYVLPPSPKELSSSDTVTLTCLIKDFFPPEIDVEWQSNGQPEPESKYHTTAPQLDEDGSYFLYSKLSVDKSRWQQGDTFTCAVMHEALQNHYTDLSLSHSPGK
VL: B9 VL
B11: caninized anti-IL31 antibody 11E12 (mAb1 of Table 5), canine IgGB, WT2 (antibody, part only; not given: light chain, part only)
heavy: EVQLVQSGAEVKKPGASVKVSCKTSGYTFKYYDINWVRQAPGAGLDWMGWIFPGDGGTKYNETFKGRVTLTADTSTSTAYMELSSLRAGDIAVYYCARGGTSVIRDAMDYWGQGTLVTVSSASTTAPSVFPLAPSCGSTSGSTVALACLVSGYFPEPVTVSWNSGSLTSGVHTFPSVLQSSGLYSLSSMVTVPSSRWPSETFTCNVAHPASKTKVDKPVPKRENGRVPRPPDCPKCPAPEMLGGPSVFIFPPKPKDTLLIARTPEVTCVVVDLDPEDPEVQISWFVDGKQMQTAKTQPREEQFNGTYRVVSVLPIGHQDWLKGKQFTCKVNNKALPSPIERTISKARGQAHQPSVYVLPPSREELSKNTVSLTCLIKDFFPPDIDVEWQSNGQQEPESKYRTTPPQLDEDGSYFLYSKLSVDKSRWQRGDTFICAVMHEALHNHYTQESLSHSPGK
B12: caninized anti-IL31 antibody 11E12 (mAb1 of Table 5), canine IgGB, N434H (antibody, part only; not given: light chain, part only)
heavy: B11 heavy with N443H

Target: IL-31 (target protein of mAb1, immobilized)
Experiment: cell-based or functional assay

| IC50 (cell based potency assay) [nM] | Binder |
| --- | --- |
| 1.1 | B1 |
| 0.99 | B2 |

Target: IL-31 (target protein of mAb1, immobilized)
Experiment: SPR (Biacore T200), target amine-coupled on CM5, antibody flowed, 15 C, 1:1 model

| Kd [nM] | Binder |
| --- | --- |
| 0.483 | B1 |
| 0.373 | B2 |

Target: T1, canine FcRn complex (FcRn-α subunit and β-microglobulin), biotin labeled by BirA, captured on SA chip … (canine, UniProt A0A8I3PFR8 25-296, biotin label by BirA enzymatic biotinylation (BAP tag))
T1 sequence (A0A8I3PFR8 entry or part of it, one chain of several): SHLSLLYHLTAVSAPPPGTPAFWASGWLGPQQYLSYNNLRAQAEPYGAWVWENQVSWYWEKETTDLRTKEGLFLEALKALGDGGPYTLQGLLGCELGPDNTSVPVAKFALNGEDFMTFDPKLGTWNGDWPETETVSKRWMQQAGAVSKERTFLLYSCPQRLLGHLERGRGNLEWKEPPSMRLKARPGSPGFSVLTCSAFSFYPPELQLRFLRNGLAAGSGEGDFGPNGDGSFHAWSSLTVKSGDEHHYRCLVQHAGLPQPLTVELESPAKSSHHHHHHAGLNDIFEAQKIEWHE
Experiment: SPR (Biacore), biotinylated FcRn captured on SA chip, IgG flowed, pH 7.4, 15 C

| Kd [nM] | Binder |
| --- | --- |
| 997 | B3 |
| 175 | B4 |
| 33700 | B5 |
| 19600 | B6 |
| 7.86 | B7 |
| 26000 | B8 |

Target: canine FcRn complex (FcRn-α subunit and β-microglobulin) with c-terminal 6x His + BAP tag, amine-immobilized (Example 3) (canine)
Experiment: SPR (Biacore), FcRn amine-coupled on CM5, IgG flowed, pH 6, 15 C

| Kd [nM] | Binder |
| --- | --- |
| 15 to 24.4 | B1 |
| 0.7 to 1.3 | B2 |

Target: canine FcRn complex (FcRn-α subunit and β-microglobulin), biotin labeled by BirA, captured on SA chip (Example 5) (canine)
Experiment: SPR (Biacore), biotinylated FcRn captured on SA chip, IgG flowed, pH 6, 15 C

| Kd [nM] | Binder |
| --- | --- |
| 52 | B9 |
| 71 | B10 |
| 40 | B11 |
| 1 | B12 |
| 19.9 | B1 |
| 6.45 | B2 |

Target: canine FcRn complex (FcRn-α subunit and β-microglobulin), biotin labeled by BirA, captured on SA chip (Example 5) (canine)
Experiment: SPR (Biacore), biotinylated FcRn captured on SA chip, IgG flowed, pH 7.4, 15 C

| Kd [nM] | Binder |
| --- | --- |
| 83900 | B12 |
| 18700 | B1 |

Target: T1, canine FcRn complex (FcRn-α subunit and …)
Experiment: SPR (Biacore), biotinylated FcRn captured on SA chip, IgG flowed, pH 6, 15 C

| Kd [nM] | Binder |
| --- | --- |
| 14.3 | B3 |
| 139 | B4 |
| 30.7 | B5 |
| 77.1 | B6 |
| 9.11 | B7 |
| 118 | B8 |

Target: canine FcRn complex (FcRn-α subunit and β-microglobulin) with c-terminal 6x His + BAP tag, amine-immobilized (Example 3) (canine)
Experiment: SPR (Biacore), FcRn amine-coupled on CM5, IgG flowed, pH 7.2, 15 C

| Kd [nM] | Binder |
| --- | --- |
| 5000 | B2 |

Reference: patent US20230242635A1 (published 2023)
